From publication PMC5435986 (Nucleic Acids Research, 2017)
Residue numbers refer to the chain shown, from its start. Names may count otherwise. Values belong to the binder of their own block, whether it stands above or below them.

How the values were obtained:
Experiment in all cases: ITC
[1] = biological target: F612A/D622A/R624A/K667E quadruple CBPKIX mutant (UniProt P45481 586-672, F612A | D622A | R624A | K667E)
[2] = biological target: Y650A/A654Q/Y658V triple CBPKIX mutant (UniProt P45481 586-672, Y650A | A654Q | Y658V)
Sequence of Y650A/A654Q/Y658V triple CBPKIX mutant (P45481 586-672 Y650A/A654Q/Y658V): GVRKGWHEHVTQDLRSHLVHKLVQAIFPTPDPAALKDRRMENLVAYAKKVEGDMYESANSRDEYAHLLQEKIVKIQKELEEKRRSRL

[3] = biological target: KIX domain of CREB-binding protein (CBP), residues 586–672 (UniProt P45481 586-672)
Sequence of KIX domain of CREB-binding protein (CBP), residues 586–672 (P45481 586-672): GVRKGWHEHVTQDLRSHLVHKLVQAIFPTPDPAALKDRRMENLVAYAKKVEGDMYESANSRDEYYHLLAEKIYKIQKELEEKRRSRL

Sequence of F612A/D622A/R624A/K667E quadruple CBPKIX mutant (P45481 586-672 F612A/D622A/R624A/K667E): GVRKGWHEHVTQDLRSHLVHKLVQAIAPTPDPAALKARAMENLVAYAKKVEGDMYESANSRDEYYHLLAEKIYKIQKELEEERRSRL

fold decrease in affinity against wild-type CBPKIX [1]: ≥ 100 fold
Kd [2]: 13 ± 2 µM
Kd [3]: 15 ± 3 µM
B1: transactivation domain 1 (TA1) of the p65 subunit of NF-κB, residues 521–551, L523Y (peptide, UniProt Q04206 521-551, looked up)
chain: PGYPNGLLSGDEDFSSIADMDFSALLSQISS

fold decrease in affinity against wild-type p65TA1 [3]: ~1.5 fold
B2: L545A mutant of p65TA1 (peptide, UniProt Q04206 521-551, looked up)
chain: B1 chain with L25A

fold decrease in affinity against wild-type p65TA1 [3]: ~1.5 fold
B3: L546A mutant of p65TA1 (peptide, UniProt Q04206 521-551, looked up)
chain: B1 chain with L26A

fold decrease in affinity against wild-type p65TA1 [3]: ≥ 100 fold
B4: F542A mutant of p65TA1 (peptide, UniProt Q04206 521-551, looked up)
chain: B1 chain with F22A
